In paper PMC6391183:

Target: Ago2 PAZ domain (human, UniProt Q9UKV8 227-371)
Assay: ITC

Ago2 PAZ domain, sequence (Q9UKV8 227-371): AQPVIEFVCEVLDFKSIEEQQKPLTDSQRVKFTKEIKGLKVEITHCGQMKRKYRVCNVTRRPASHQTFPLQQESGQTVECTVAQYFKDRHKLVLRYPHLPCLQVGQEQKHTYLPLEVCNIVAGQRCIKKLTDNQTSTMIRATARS

B1: native RNA (ssRNA)
RNA: AGAGUCACGCUUU
Binder B1 has a Kd of 600 nM.
